Reference: IntAct's records for PubMed 12626716

B1: mRNA 3'-end-processing protein YTH1 (Saccharomyces cerevisiae), Q06102 (parent)
chain: MSLIHPDTAKYPFKFEPFLRQEYSFSLDPDRPICEFYNSREGPKSCPRGPLCPKKHVLPIFQNKIVCRHWLRGLCKKNDQCEYLHEYNLRKMPECVFFSKNGYCTQSPDCQYLHIDPASKIPKCENYEMGFCPLGSSCPRRHIKKVFCQRYMTGFCPLGKDECDMEHPQFIIPDEGSKLRIKRDDEINTRKMDEEKERRLNAIINGEV
partner: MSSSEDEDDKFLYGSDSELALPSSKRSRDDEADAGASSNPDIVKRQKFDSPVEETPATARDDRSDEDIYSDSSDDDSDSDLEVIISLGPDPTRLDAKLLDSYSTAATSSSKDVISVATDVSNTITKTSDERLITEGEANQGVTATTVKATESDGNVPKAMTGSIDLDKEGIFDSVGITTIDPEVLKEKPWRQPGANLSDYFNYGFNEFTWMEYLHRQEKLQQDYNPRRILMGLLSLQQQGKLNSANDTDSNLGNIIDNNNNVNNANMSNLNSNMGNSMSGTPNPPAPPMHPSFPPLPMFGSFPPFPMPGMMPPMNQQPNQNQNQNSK

Variants of: B1
Conditions: with fip1_yeast FIP1, P45976

Row | Variant | effect of a mutation on the interaction
1 | MSLIHPDTAKYPFKFEPFLRQEYSFSLDPDRPICEFYNSREGPKSCPRGPLCPKKHVLPIFQNKIVCRHWLRGLCKKNDQCEYLHEYNLRKMPECVFFSKNGYCTQSPDCQYLHIDPASKIPKCENYEMRFCPLGSSCPRRHIKKVFCQRYMTGFCPLGKDECDMEHPQFIIPDEGSKLRIKRDDEINTRKMDEEKERRLNAIINGEV [G130R] | decreasing interaction
